From patent publication US20120264231A1, “ASSAY FOR ORAI CALCIUM CHANNEL REGULATORS” (IMMUNE DISEASE INSTITUTE, INC., priority 2009, published 2012)

What was measured:
ORAI1 = ORAI1 (Homo sapiens, UniProt Q96D31); assay: Fura-2 Ca^2+ flux assay, sec6-4 secretory vesicles with ORAI1; format: biochemical; set-up: the ORAI functional fragment is ORAI1 (65-301), ORAI1 (65-87), or full length ORAI1; made in house; host or cells: S. cerevisiae NY17 (sec6-4), isolated secretory vesicles, vector pBEVY-GU
Protocol: It was next asked whether STIM-ORAI protein-protein interaction is sufficient to open the ORAI Ca^2+ channel. Vesicles obtained from S cerevisiae expressing ORAI were incubated under conditions where Fura-2 was the principal Ca^2+ buffer in the extravesicular solution in order to monitor Ca^2+ efflux (Meyer, T., et al., Biochemistry 29, 32-37 (1990)).
Vesicles carrying ORAI 1 were isolated from S cerevisiae strain NY1 7 according to a standard protocol (Coury, L. A., et al., Methods Enzymol 306, 169-186 (1999); Nakamoto, R. K., et al., J Biol Chem 266, 7940-7949 (1991)). Efflux of Ca^2+ elicited by STIM1^CT fragments was detected by suspending the vesicles in a buffer containing Fura-2 as principal Ca^2+ buffer, and monitoring the Fura-2 fluorescence excitation spectrum (Meyer, T., et al., Biochemistry 29, 32-37 (1990)). As a complementary approach, ORAI 1 was coexpressed with a Ca^2+ sensor cameleon D3 cpV or cameleon D4 cpV53 that was targeted to the vesicles, and changes in intravesicular [Ca^2+] were detected as changes in FRET between CFP and YFP of the sensor.
S cerevisiae strain NY17 featuring the temperature-sensitive sec6-4 mutation was used for protein expression and purification of secretory vesicles as described (Nakamoto, R. K., et al., J Biol Chem 266, 7940-7949 (1991); Coury, L. A., et al., Methods Enzymol 306, 169-186 (1999)). Cells were grown to midlog phase at 25° C. in uracil-deficient synthetic complete medium containing glucose, which was subsequently exchanged for galactose to induce transgene expression over a period of 8 hours. The temperature was then switched to 37° C. for 3 hours to force intracellular accumulation of secretory vesicles. Cells were collected by centrifugation at 4,000×g for 5 min at 4° C., washed once in ice-cold water, resuspended at a concentration of 50-60 OD600 units/mL in 10 mM DTT, 100 mM Tris pH 9.4, and shaken gently at room temperature for 10 min. Cells were pelleted and resuspended at 50-60 OD600 units/mL in spheroplast buffer (1.4 M sorbitol, 50 mM K2HPO4 pH 7.5, 10 mM NaN3, 40 mM β-mercaptoethanol) containing Zymolyase 20T (50 units per g of yeast wet weight) and incubated for up to 1 h at 37° C. Spheroplasts were harvested at 3,000×g for 5 min at 4° C., resuspended in spheroplast buffer containing 10 mM MgCl2 and 1 mg/ml Concanavalin A at a density corresponding to 50 OD600 units/mL of the starting culture, and gently shaken at 4° C. for 15 min. […] Myc-tagged ORAI1 was detected in Western blots using the murine anti-Myc monoclonal antibody 9E10. […]

CD thermal unfolding = format: physicochemical; conditions: CD signal at 222 nm, 20 μM protein, pH 7.5
Protocol: CD spectra of STIM 1^CT fragments were recorded in a Jasco-810 spectropolarimeter at 25° C. using a 1-mm path length quartz cell with the protein concentration at 20 μM in 10 mM Tris-HCl, 150 mM KCl, 1 mM DTT at pH 7.5. All spectra were obtained as the average of at least ten scans with a scan rate of 50 nm/min. The ellipticity was measured from 190 to 260 nm and converted to mean residue molar ellipticity (deg cm^2 dmol^−1 res^−1). The calculation of secondary structure elements was performed by using DICHROWEB, an online server for protein secondary structure analyses (Whitmore, L. & Wallace, B. A. Nucleic Acids Res 32, W668-W673 (2004)). Thermal unfolding measurements were performed using a 1 mm quartz cell with a protein concentration of 20 μM in the same buffer. To obtain the thermal transition point, the signal changes at 222 nm were fitted using the equation: ΔS=ΔSmax/[…]), where ΔS and ΔSmax are the signal changes at each data point and at the final data point, Tm and T are the transition temperature and experimental temperature, respectively, and k represents the transition rate.

[1] = STIM 1 cytoplasmic fragments 2 μM

Sequence of ORAI1 (Q96D31 2-301): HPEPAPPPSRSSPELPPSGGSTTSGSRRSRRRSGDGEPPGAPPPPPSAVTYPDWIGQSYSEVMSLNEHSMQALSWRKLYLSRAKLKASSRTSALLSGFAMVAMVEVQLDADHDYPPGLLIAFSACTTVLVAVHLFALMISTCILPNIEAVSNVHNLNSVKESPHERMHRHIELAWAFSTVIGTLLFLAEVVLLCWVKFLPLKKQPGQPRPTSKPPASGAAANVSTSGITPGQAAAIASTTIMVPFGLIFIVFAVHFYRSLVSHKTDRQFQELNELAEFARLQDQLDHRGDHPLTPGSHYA

Row | Compound | Ca^2+ efflux from vesicles with ORAI (Fura-2 excitation spectrum) (ORAI1; ionomycin 20 μM) | Tm (thermal unfolding) (CD thermal unfolding) [°C] | Ca^2+ efflux from vesicles with ORAI (Fura-2 excitation spectrum) (ORAI1; [1])
1 | C[C@H](CCC(=O)O)C[C@H](C)C[C@H](C)C(=O)/C=C(\O)[C@H](C)C[C@H](C)C/C=C/[C@@H](C)[C@@H](O)[C@@H](C)[C@@H](O)C[C@@H]1CC[C@@](C)([C@H]2CC[C@@](C)([C@@H](C)O)O2)O1 [ionomycin, reference compound] | release of Ca^2+ to the extravesicular solution |  | 
2 | STIM1 (233-463): truncated mouse STIM1 cytoplasmic fragment, residues 233-463, His-tagged recombinant protein |  | 43.8±0.2 | had little effect
3 | STIM1 (233-498): truncated mouse STIM1 cytoplasmic fragment, residues 233-498, His-tagged recombinant protein |  | 48.5±0.4 | elicited efflux of Ca^2+
4 | STIM1^CT: cytoplasmic region of STIM1, mouse residues 233-685, His-tagged recombinant protein expressed in E coli |  | 47.0±0.3 | elicited efflux of Ca^2+
